From patent publication US11434267B2, “Peptides having reduced toxicity that stimulate cholesterol efflux” (The Regents of the University of California, priority 2013, dated 2022)
“Also recorded” adds a separate entry of the source.

How the values were obtained:
Wistar rats = experiment: High-dose IV toxicity of ATI-5261 in rats (plasma ALT, AST, TG, cholesterol); type: in vivo, rat
Procedure: (§1) Peptides or peptidomeimetics of the invention can be evaluated for toxicity using known assays. Examples of such assays are illustrated in the Examples section. Toxicity is typically assayed in a rat, rabbit, mouse, monkey or dog model. In an illustrative assay such as that described in Example 1, a peptide is administered intravenously using a rabbit or rat model at doses of 3, 30, and 300 mg/kg and vehicle alone is also administered at 48 hour intervals for a total of four injections. Safety chemistry panels including plasma alanine aminotransferase (ALT), aspartate amino transferase (AST), and creatine kinase (CK) can then be determined in the blood. The presence of elevated levels of these enzymes in the blood compared to control normal values is indicative of toxicity. A peptide of the invention is typically considered to be non-toxic or to have little toxicity, when the results using the highest dose, 300 mg/kg in this illustrative assay, are equivalent (fall within the standard deviation) of the values measured for the control animals that received vehicle alone, or are no more than 2 or 3 times background obtained with vehicle alone. In some embodiments, a toxicity assay is performed where the toxicity of a peptide of the invention is compared to that to ATI-5261. […]
(§2) Cytotoxicity of an HDL mimetic peptide ATI-5261 at high doses was evaluated in rats and rabbits (FIG. 1). […]

[1] = tested on: New Zealand White rabbits; experiment: High-dose IV bolus toxicity of ATI-5261 in rabbits (plasma ALT, AST, TG, cholesterol); type: in vivo, rabbit
Description: as §1, with “In an illustrative assay such as that described in Example 1, a peptide is administered intravenously using a rabbit or rat model at doses of 3, 30, and 300 mg/kg and vehicle alone is also administered at 48 hour intervals for a total of four injections.” left out, “alone.” for “alone. In some embodiments, a toxicity assay is performed where the toxicity of a peptide of the invention is compared to that to ATI-5261.”
as §2
For the experiments in FIG. 2, male chow-fed Wistar rats (Panels A and B) were administered ATI-5261 at doses of 3, 30, and 300 mg/kg as described in FIG. 1. Plasma triglyceride (TG, Panel A) and unesterified cholesterol (Panel B) concentrations were determined enzymatically at the times indicated. […]

cynomolgus monkeys = experiment: IV infusion toxicity of ATI-5261 in monkeys; type: in vivo, cynomolgus monkey
Procedure: Male (upper panel) and female (lower panel) cynomolgus monkeys were administered ATI-5261 at a fixed dose of 100 mg/kg by IV infusion (60 min) every 96 hours for a total of 4 injections. Blood was collected 24 h post infusion and levels of plasma ALT, AST, creatine kinase (CPK), and total and indirect bilirubin determined. Values are expressed as a fold-increase vs. pre-dose levels.

C57Bl/6 mice [2] = type: in vivo; conditions: 300 mg/kg IP, male chow-fed C57Bl/6 mice
Procedure: The high-dose cytotoxic response of ATI-5261 observed in rat, rabbit and cynomolgus monkey is additionally recapitulated in mice (FIG. 4). Male chow-fed C57bl/6 mice were injected intraperitonelly (IP) with 30 or 300 mg/kg of lipid-fee ATI-5261. Blood was collected via the retro-orbital plexus 4 h after peptide injection and plasma subsequently obtained for measurement of CPK (Panel A) and ALT and AST activities (Panel B, ALT left bars, AST, right bars). Values are means±SD, n=4 mice per group.
This example illustrates that aromatic phenylalanine residues associated with the non-polar surface of ATI-5261 contributed to the majority of the peptide toxicity (FIG. 5). […] Blood was collected via retro-orbital plexus 4 h after injection for isolation of plasma. Levels of plasma CPK (Panel A), ALT (panel B) and AST (Panel C) were determined as described in FIG. 1. Values are means±SD, n=4 mice per group.
The concentrations of plasma lipids in C57Bl/6 mice following administration of the aliphatic analogs of ATI-5261 was also determined. […] All values (mg/dl) are means±SD, n=4, determined at 4 and 6 h post treatment with peptide.

ABCG1 = target: T1, ABCG1 (Homo sapiens, UniProt P45844); experiment: ABCG1 mediated cholesterol efflux from BHK cells stably transfected with ABCG1; type: cell-based; conditions: BHK-ABCG1 vs mock, 50 μg peptide/ml, time-course and 4 h
T1 construct: expressed in transfected cells; host or cells: BHK cells, stably transfected
Description: To further evaluate potential anti-atherogenic mechanisms of CS6253, BHK cells stably transfected with ABCG1 and mock-transfected control cells were labeled with [3H]cholesterol and used in efflux experiments. […] Panel A—Time-course for ABCG1 mediated cholesterol efflux from cells to lipid-free CS6253 peptide or CS6253:POPC complexes. […] Panel B—Comparison between CS6253 and ATI-5261 in mediating cellular cholesterol efflux via ABCG1. [3H]cholesterol labeled BHK cells (ABCG1 vs. mock transfected; left bars, control BHK, right bars, G1-BHK) were incubated with either lipid-free peptide or peptides formulated with POPC.

C57Bl/6 mice [3] = conditions: mouse, in vivo, ip, 300 mg/kg
ABCA1 = target: T2, ABCA1 (Mus musculus, UniProt P41233); experiment: ABCA1-dependent cholesterol efflux from [3H]cholesterol-labeled J774 macrophages with and without cAMP; type: cell-based; conditions: J774, cAMP vs no cAMP; 10 μg/ml lipid-free
T2 construct: treated (18 h) with a cAMP analog to induce ABCA1 protein expression; endogenous in cells; host or cells: J774 macrophages
T2 sequence (P41233 whole entry): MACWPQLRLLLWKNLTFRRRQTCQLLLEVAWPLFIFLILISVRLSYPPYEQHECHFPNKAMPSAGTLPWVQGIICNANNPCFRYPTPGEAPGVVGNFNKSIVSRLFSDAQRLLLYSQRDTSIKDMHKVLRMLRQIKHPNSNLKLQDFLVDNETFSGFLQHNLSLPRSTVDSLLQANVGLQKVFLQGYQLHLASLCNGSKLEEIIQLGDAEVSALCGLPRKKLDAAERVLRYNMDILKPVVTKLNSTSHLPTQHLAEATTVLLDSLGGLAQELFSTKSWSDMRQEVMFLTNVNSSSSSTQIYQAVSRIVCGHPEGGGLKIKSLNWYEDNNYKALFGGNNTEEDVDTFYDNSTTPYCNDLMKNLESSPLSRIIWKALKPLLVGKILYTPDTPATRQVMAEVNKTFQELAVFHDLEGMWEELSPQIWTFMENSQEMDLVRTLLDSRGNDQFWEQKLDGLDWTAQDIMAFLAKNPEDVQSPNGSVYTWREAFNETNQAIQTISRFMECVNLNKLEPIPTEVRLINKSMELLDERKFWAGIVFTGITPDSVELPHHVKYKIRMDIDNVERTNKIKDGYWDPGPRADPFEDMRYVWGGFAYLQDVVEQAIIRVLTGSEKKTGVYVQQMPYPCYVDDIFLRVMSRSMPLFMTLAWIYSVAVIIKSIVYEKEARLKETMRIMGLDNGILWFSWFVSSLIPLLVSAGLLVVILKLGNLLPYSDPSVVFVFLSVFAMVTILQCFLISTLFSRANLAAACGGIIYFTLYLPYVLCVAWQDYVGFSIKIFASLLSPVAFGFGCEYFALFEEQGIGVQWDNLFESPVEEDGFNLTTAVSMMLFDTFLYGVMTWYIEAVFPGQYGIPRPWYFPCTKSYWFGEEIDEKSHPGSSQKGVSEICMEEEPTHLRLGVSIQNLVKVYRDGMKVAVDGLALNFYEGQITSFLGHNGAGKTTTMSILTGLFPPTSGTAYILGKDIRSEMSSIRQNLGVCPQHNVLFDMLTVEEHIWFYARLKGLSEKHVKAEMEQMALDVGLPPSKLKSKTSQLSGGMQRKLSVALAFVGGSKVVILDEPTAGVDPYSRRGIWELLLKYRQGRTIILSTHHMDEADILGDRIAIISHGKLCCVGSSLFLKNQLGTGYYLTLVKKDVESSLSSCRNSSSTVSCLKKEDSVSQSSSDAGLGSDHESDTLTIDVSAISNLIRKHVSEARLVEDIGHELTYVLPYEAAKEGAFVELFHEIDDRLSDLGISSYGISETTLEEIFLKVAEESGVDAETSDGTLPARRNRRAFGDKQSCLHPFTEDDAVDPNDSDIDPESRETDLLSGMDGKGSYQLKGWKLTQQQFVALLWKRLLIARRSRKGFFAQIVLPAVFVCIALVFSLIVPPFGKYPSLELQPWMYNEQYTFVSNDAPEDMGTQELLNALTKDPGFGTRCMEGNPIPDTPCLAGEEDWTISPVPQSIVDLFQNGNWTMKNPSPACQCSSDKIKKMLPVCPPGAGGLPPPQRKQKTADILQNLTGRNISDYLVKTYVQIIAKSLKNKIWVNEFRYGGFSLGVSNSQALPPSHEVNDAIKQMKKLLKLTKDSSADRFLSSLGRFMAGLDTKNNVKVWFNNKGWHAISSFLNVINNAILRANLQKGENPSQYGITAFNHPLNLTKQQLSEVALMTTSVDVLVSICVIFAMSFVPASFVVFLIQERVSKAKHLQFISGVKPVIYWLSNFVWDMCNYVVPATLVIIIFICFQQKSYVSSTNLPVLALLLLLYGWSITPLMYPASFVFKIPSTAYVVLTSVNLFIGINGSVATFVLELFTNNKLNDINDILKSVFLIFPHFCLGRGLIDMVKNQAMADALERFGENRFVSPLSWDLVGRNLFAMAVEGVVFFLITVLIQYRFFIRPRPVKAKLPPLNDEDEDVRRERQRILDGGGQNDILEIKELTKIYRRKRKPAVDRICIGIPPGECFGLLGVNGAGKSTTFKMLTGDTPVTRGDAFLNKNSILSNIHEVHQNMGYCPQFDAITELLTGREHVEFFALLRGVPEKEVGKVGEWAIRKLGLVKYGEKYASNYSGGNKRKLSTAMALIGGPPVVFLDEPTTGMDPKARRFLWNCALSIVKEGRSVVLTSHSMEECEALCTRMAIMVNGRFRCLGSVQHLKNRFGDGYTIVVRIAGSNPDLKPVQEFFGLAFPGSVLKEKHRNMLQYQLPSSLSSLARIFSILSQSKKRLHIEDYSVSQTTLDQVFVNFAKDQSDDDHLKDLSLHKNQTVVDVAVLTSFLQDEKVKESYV

ATI-5261: HDL mimetic peptide, parent peptide with phenylalanine and arginine residues; toxic at high doses; used as positive control (EVRSKLEEWFAAFREFAEEFLARLKS)
plasma triglycerides and unesterified cholesterol (Wistar rats; IV): increased plasma triglycerides and cholesterol
cytotoxic response (plasma ALT, AST) (Wistar rats; IV 3, 30, 300 mg/kg at 48 h intervals, 4 injections): induced a cytotoxic response
plasma triglycerides and unesterified cholesterol ([1]; single IV bolus): increased plasma triglycerides and cholesterol
cytotoxic response (plasma ALT, AST) ([1]; single IV bolus 3, 30 or 300 mg/kg): induced a cytotoxic response
cytotoxic response (ALT, AST, CPK, bilirubin) (cynomolgus monkeys; 100 mg/kg IV infusion (60 min) every 96 hours, 4 injections, 24 h post infusion): induced a cytotoxic response
plasma creatine kinase, fold-increase vs. pre-dose (cynomolgus monkeys; 100 mg/kg IV infusion, after the first infusion, male and female): marked increase
TG elevating effect (plasma TG, cholesterol) (C57Bl/6 mice [2]; 4 and 6 h): marked increase in plasma TG, total and unesterified (free) cholesterol (FC)
cytotoxic/toxic response (plasma CPK, ALT, AST) (C57Bl/6 mice [2]; 4 h): High levels of cytotoxic markers
cholesterol efflux via ABCG1 (ABCG1): poorly active
triglyceride (TG) (C57Bl/6 mice [3]): triglyceride (TG) elevation effects
ABCA1-dependent cholesterol efflux activity (ABCA1): stimulated an overall greater efflux response; also recorded: stimulated a greater efflux response
